The DeepSol protein solubility set

assay: soluble on expression in E. coli; label from the status in PepcDB or PDB records

Row | Sequence | soluble on expression in E. coli
1 | MGSDKIHHHHHHMKDGKLYVAFSGGKDSSLVAILAKMALGEERVELVTVDWSPYTYERSREIVRNFAEKHGLKHTFIPSNRMQEKVWKHGPSCNACTRDVKTVLVKRYAQGHLVASGANASDSWGKTGLKVFDGVYSPLCRVGKEEINEMLKFLGLEVKKIGESAGREGCKLKHLLKMLINPDYHGKAVSTANEILLRVLEEHGFKPELANVKIIGPLSRNIALVNVKPLPPEKVMNEIVEKLSAEETIDGVIVVDGPMKLVVLASPAIYRNEESRKWIKEGRLQPEFAFPIEIEWRESKNNKLRTFQVVDARKE | not soluble
2 | MISIVGIGSGNRVEELTIKAYNTLKNSDIGIYPGNFIGEELKELFEDKTMFTGRDITSEKIKNIFHNNRDKNICLMVSGDPALYSGQFNTNLCLDEHIKWFNEHNYNYEMIPGLSSLSILCAKKSIDLTPFSKTQNVFITSIERLRDLKCFNYTELKSILSTKPVLALYQSLKEFDNIKSLLMEFYPPTTKVIFAQSLSWSNECIFETDLKTLNETESTTSQFNDQTLILVYPSTILTIK | not soluble
3 | MGSDKIHHHHHHMNLKDLENPGVWYRPAPFWSWNDKLCEEELLRQIDEMYEKGYGGFFMHSRVGLVTEYLSEEWMRLVRSCAEHARKLGMLAWLYDEDKWPSGFAGGIVPLEKPEHRHKYLTLLKKDQIKPEDEILKKIERDGEEFYVVKRVMKLGDPWFNGTCYVDLLSRETTEAFLRSTHERYKKSCGDLFRVSIPGIFTDEPTYLRVHHPKETTLPWTERFPEEFLRRKGYDIRDHLEELFFNVKDYMKVRYDFFDVATSLFIENFTIPYAKWCEENGIFMTGHYMAEDTLRGQVEWIGAAMPHYEYMQIPGIDKLARHLEQVVTIKQVSSAAEQLGKKWVLCETFGTTGQHVSFLHRKWIADWQAVLGVTYINPHLSLYSMRGERKRDYPPNLFYQQPWWKNERFLSDYFARLNHIVTQGKREVKVLMIHPISSAWCVYSKFDDEIDKLNELFDTITKELVANKIDFHFGDEMILSKHGRVKEAKLRVGEYEYEVVVLPPLLNLKSSTVELLNSLAENGGKVFVLKDFRYGRFFPERVEGKKGRIEFLKKARVFETLEDLIEELKPFFSVDVLDTKTKENAKAVIAQKRVLEDGSYLLFLANTDIDREVHCHLELKEKRKHTYAIDLFNFKLVELKENEFVMFPASSVCIWVTDEEVPAEDEKVVSTGVLLEKEFDFETALNDFEVKMNSFNVLPVDRVEYFEAGGRVFRNEFVSKIWYEFYRLPDGTPFRVEYSFEVRKKPQKLFLVVECAENLDRITVNGREVRYERKSCIFNEEQNFLDVNFGKMEITDLVREGKNTVVLEGRKENNITGPGCHTRVKDPENHRPTEVETIYLVGDFSLVNVDETRYVIDAPKIPDHRDITRDGYPFYVGSFTLKKIFECKKDPGKRYFLKLNGVEAASVEVILNGKFLGVLFWRPFMIDITDALRNGKNELQLVLTNTLFNLIEANHKADVLEETFRRPKSFIDFEHHTDRYILLPFGLENVAVLSSSSR | not soluble
4 | KKLKKIVNSYINLGFEVTTKRETIQIDDLVPTQATVYEDELYGRAYELKRGLAEPIIVIKTNNNEKYILVDGHHRAVAACLSDIKELEAHVLEIDTDKKMGIEKTAEKQGLKSLSDIKILDEDKMNCSSAYKLKANILEM | not soluble
5 | MGSDKIHHHHHHMSASLILTLSCEDKPGIVARVTGNLFEAGGNIREAQQFDDPLSGRFFMRVVFDPAEGSVEHYRAAFAAVADHYAMEWNLRDTTVKRKVILMVSKFDHCLGDLLYRTRIGELPMDVVAILGNHPKEALNISLIGDIPYHHLPITKDTKPQQEAEVKRIVTETGAELVVLARYMQILSDDLAAFLSGRCINIHHSFLPSFKGAKPYHQAHARGVKMIGATGHYVTADLDEGPIIHQDVETVTHADSPDDLVRKGRDVERRVLAEAVRLHLEDRALVNGNKTVVFKS | not soluble
6 | GMKIDGETRSARKDREIIQAATAAFISKGYDGTSMEEIATKAGASKQTVYKHFTDKETLFGEVVLSTASQVNDIIESVTTLLSEAIFMEGGLQQLARRLIAVLMDEELLKLRRLIIANADRMPQLGRAWYEKGFERMLASTASCFQKLTNRGLIQTGDPYLAASHLFGMLLWIPMNEAMFTGSNRRSKAELERHADASVEAFLAVYGVQPK | soluble
7 | MFKDFFNRTKKKKYLTVQDSKNNDVPAGIMTKCPKCKKIMYTKELAENLNVCFNCDHHIALTAYKRIEAISDEGSFTEFDKGMTSANPLDFPSYLEKIEKDQQKTGLKEAVVTGTAQLDGMKFGVAVMDSRFRMGSMGSVIGEKICRIIDYCTENRLPFILFSASGGARMQEGIISLMQMGKTSVSLKRHSDAGLLYISYLTHPTTGGVSASFASVGDINLSEPKALIGFAGRRVIEQTINEKLPDDFQTAEFLLEHGQLDKVVHRNDMRQTLSEILKIHQEVTK | soluble
